Measurements from article PMC11973759 (Journal for Immunotherapy of Cancer, 2025).
Where no end group is shown, it is not given here.

B1: biotinylated TAMpep (peptide)
chain: VLTTGLPALISWIKRKRQQ
modifications: also: biotin, position not given here

How the values were obtained:
[1] = target: CD18 cysteine-rich domain (Cloud-Clone); test: SPR
[2] = target: B1; test: SPR

Binder	Kd [1]	Kd [2]
B1	0.185 nM	–
CD18 I-domain (Cloud-Clone) (domain or fragment) GYPIDLYYLMDLSYSMLDDLRNVKKLGGDLLRALNEITESGRIGFGSFVDKTVLPFVNTHPDKLRNPCPNKEKECQPPFAFRHVLKLTNNSNQFQTEVGKQLISGNLDAPEGGLDAMMQVAACPEEIGWRNVTRLLVFATDDGFHFAGDGKLGAILTPNDGRCHLEDNLYKRSNEFDYPSVGQLAHKLAENNIQPIFAVTSRMVKTYEKLTEIIPKSAVGELSEDSSNVVHLIKNAYNKL	–	4.7 nM
